B1: noncollagenous C-terminal domain (NC1) of the collagen IV α1 chain, recombinant (domain or fragment, human)
chain: SVDHGFLVTRHSQTIDDPQCPSGTKILYHGYSLLYVQGNERAHGQDLGTAGSCLRKFSTMPFLFCNINNVCNFASRNDYSYWLSTPEPMPMSMAPITGENIRPFISRCAVCEAPAMVMAVHSQTIQIPPCPSGWSSLWIGYSFVMHTSAGAEGSGQALASPGSCLEEFRSAPFIECHGRGTCNYYANAYSFWLATIERSEMFKKPTPSTLKAGELRTHVSRCQVCMRRT
notes: collagen IV α1 chain, human, NC1 domain (about 230 C-terminal residues); The construct has an N-terminal BM40 secretion peptide followed by the FLAG tag; also called α1NC1; α1(IV)NC1
B2: noncollagenous C-terminal domain (NC1) of the collagen IV α2 chain, recombinant, from insect cells (domain or fragment, human)
chain: SVSIGYLLVKHSQTDQEPMCPVGMNKLWSGYSLLYFEGQEKAHNQDLGLAGSCLARFSTMPFLYCNPGDVCYYASRNDKSYWLSTTAPLPMMPVAEDEIKPYISRCSVCEAPAIAIAVHSQDVSIPHCPAGWRSLWIGYSFLMHTAAGDEGGGQSLVSPGSCLEDFRATPFIECNGGRGTCHYYANKYSFWLTTIPEQSFQGSPSADTLKAGLIRTHISRCQVCMKNL
notes: collagen IV α2 chain, human, NC1 domain; The construct has an N-terminal BM40 secretion peptide followed by the FLAG tag; Used for the α121NC1 crystals (expressed in insect cells); also called α2NC1; α2(IV)NC1

Data set [1] has as its target noncollagenous C-terminal domain (NC1) of the collagen IV α4 chain, recombinant (human) (UniProt P53420). The data set is described as follows: crystal structure; α4NC1 alone; sitting drop, 21°C; protein in 50 mM Tris-HCl pH 7.4, 0.15 M NaCl; 6% PEG 3350, 0.2 M Na acetate, 0.1 M MES pH 6.5.
For data set [2], the target named is noncollagenous C-terminal domain (NC1) of the collagen IV α3 chain, recombinant (human) (UniProt Q01955). The data set is described as follows: SPR; Biacore T100; α3NC1 or α5NC1 amine-coupled to CM5 chip (~1000 RU); α3NC1 or α5NC1 flowed over; 25°C; 10 mM Tris-HCl pH 7.4, 0.15 M NaCl, 3 mM EDTA, 0.005% surfactant P20; self-association. For orientation: SPR reads the build-up and loss of mass on a sensor chip optically.

Data set [3] shares this target. The data set is described as follows: crystal structure; α3NC1 alone; sitting drop, 21°C; protein in 50 mM Tris-HCl pH 7.4, 0.5 M NaCl; 16% PEG 3350, 0.2 M MgCl2, 0.1 M bis-tris propane pH 7.5.
The target in data set [4] is B2. The data set is described as follows: crystal structure; 2:1 mixture (in terms of mass) of α1NC1 and α2NC1; sitting drop, 21°C; protein in 50 mM Tris-HCl pH 7.4, 0.15 M NaCl; 10% PEG 8000, 0.2 M Mg acetate. Particulars: both partners purified.
Data set [5] concerns the molecule itself. The data set is described as follows: crystal structure; α1NC1 alone; sitting drop, 21°C; protein in 50 mM Tris-HCl pH 7.4, 0.15 M NaCl; 1.4 M Li2SO4, 0.1 M MES pH 6.5.
In data set [6] the target is B1. The data set is described as follows: crystal structure; 2:1 mixture (in terms of mass) of α1NC1 and α2NC1; sitting drop, 21°C; protein in 50 mM Tris-HCl pH 7.4, 0.15 M NaCl; 10% PEG 8000, 0.2 M Mg acetate. Particulars: both partners purified.
Data set [7] concerns the molecule itself. The data set is described as follows: crystal structure; α2NC1 (from HEK293 cells) alone; sitting drop, 21°C; protein in 50 mM Tris-HCl pH 7.4, 0.15 M NaCl; 22% polyvinylpyrrolidone K15, 0.1 M Na2SO4, 0.1 M MES pH 6.5.
Data set [8] concerns the molecule itself. The data set is described as follows: SPR; Biacore T100; α3NC1 or α5NC1 amine-coupled to CM5 chip (~1000 RU); α3NC1 or α5NC1 flowed over; 25°C; 10 mM Tris-HCl pH 7.4, 0.15 M NaCl, 3 mM EDTA, 0.005% surfactant P20; self-association.
Data set [9] deals with the molecule itself. The data set is described as follows: crystal structure; crystals from a 1:1:1 mixture of α3NC1, α4NC1 and α5NC1; sitting drop, 21°C; protein in 50 mM Tris-HCl pH 7.4, 0.15 M NaCl; 20% PEG 8000, 0.2 M NaCl, 0.1 M CAPS pH 10.5.

Values joined by “and” are separate entries in the source; they are usually repeats but may differ in a detail not shown here. Equal entries are not always repeated.

Consider “noncollagenous C-terminal domain (NC1) of the collagen IV α4 chain, recombinant (from UniProt P53420 1461-1690) (domain or fragment)”, for which the stoichiometry N in data set [1] was 12 subunits.

For the molecule “noncollagenous C-terminal domain (NC1) of the collagen IV α3 chain, recombinant (from UniProt Q01955 1441-1670) (domain or fragment)”, the Kd in data set [2] is 1.71 µM. For the same molecule, in data set [3], the stoichiometry N amounted to 6 subunits.

As to B1, the “stoichiometry N” value was 2 α1NC1 per α2NC1 in data set [4] and 6 subunits in data set [5].

For B2, in [6], the binding result is recorded as “binds”.

B3: noncollagenous C-terminal domain (NC1) of the collagen IV α2 chain, recombinant, from HEK293 cells (domain or fragment, human)
chain: SVSIGYLLVKHSQTDQEPMCPVGMNKLWSGYSLLYFEGQEKAHNQDLGLAGSCLARFSTMPFLYCNPGDVCYYASRNDKSYWLSTTAPLPMMPVAEDEIKPYISRCSVCEAPAIAIAVHSQDVSIPHCPAGWRSLWIGYSFLMHTAAGDEGGGQSLVSPGSCLEDFRATPFIECNGGRGTCHYYANKYSFWLTTIPEQSFQGSPSADTLKAGLIRTHISRCQVCMKNL
notes: collagen IV α2 chain, human, NC1 domain; N-terminally FLAG-tagged fusion protein; Used for the α2NC1 crystals; also called α2NC1; α2NC1_(homo); source: HEK293 cells, purified as described elsewhere (Sado et al., 1998)
With B3, in data set [7], the “stoichiometry N” value was 8 subunits and 4 subunits.

B4: noncollagenous C-terminal domain (NC1) of the collagen IV α5 chain, recombinant (domain or fragment, human)
chain: SVAHGFLITRHSQTTDAPQCPQGTLQVYEGFSLLYVQGNKRAHGQDLGTAGSCLRRFSTMPFMFCNINNVCNFASRNDYSYWLSTPEPMPMSMQPLKGQSIQPFISRCAVCEAPAVVIAVHSQTIQIPHCPQGWDSLWIGYSFMMHTSAGAEGSGQALASPGSCLEEFRSAPFIECHGRGTCNYYANSYSFWLATVDVSDMFSKPQSETLKAGDLRTRISRCQVCMKRT
notes: collagen IV α5 chain, human, NC1 domain; The construct has an N-terminal BM40 secretion peptide followed by the FLAG tag; also called α5NC1; α5(IV)NC1
For B4, the Kd in data set [8] was 4.92 µM. In data set [9], the “stoichiometry N” value worked out at 6 subunits.

Usually stoichiometry N stands for the number of molecules, sites or subunits per partner or assembly. A word on the Kd: it is the constant that tells how readily two partners part at equilibrium.

(Values after PMC6211539, “Structures of collagen IV globular domains: insight into associated pathologies, folding and network assembly” (IUCrJ, 2018).)
